{"source": "paper PMC10530652", "about": "(BME Frontiers, 2021)", "key": {"MMP-2": {"biological_target": "T1, MMP-2 (Homo sapiens, UniProt P08253)", "T1 construct": "recombinant MMPs (Enzo Life Sciences) (active domains of MMP-1, MMP-2, MMP-3, MMP-7, MMP-8, MMP-9, MMP-10, MMP-11, MMP-12, and MMP-13); purchased Enzo Life Sciences", "T1 sequence (P08253 110-446 limits assumed)": "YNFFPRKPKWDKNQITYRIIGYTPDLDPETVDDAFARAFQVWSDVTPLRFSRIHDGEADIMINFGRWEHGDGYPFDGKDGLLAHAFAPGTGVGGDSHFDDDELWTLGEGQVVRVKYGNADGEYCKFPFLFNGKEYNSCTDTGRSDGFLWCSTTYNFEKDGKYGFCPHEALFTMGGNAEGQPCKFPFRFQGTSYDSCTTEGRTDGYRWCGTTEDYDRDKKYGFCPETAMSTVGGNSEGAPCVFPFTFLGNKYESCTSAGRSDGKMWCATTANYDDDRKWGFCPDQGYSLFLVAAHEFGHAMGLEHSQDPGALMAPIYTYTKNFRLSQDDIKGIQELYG", "assay": "In vitro enzymatic validation of FIB One with recombinant MMP-2 (plate reader)", "assay_type": "biochemical", "details": "MMP 30 nM", "method": "(§1) To determine the enzymatic specificity of FIB One, the probe was incubated at a concentration of 1 μM (unless otherwise stated) with the recombinant MMPs (Enzo Life Sciences) (active domains of MMP-1, MMP-2, MMP-3, MMP-7, MMP-8, MMP-9, MMP-10, MMP-11, MMP-12, and MMP-13, all at 30 nM), thrombin (Sigma Aldrich) (5 U/mL), factor Xa (Sigma Aldrich) (500 nM), plasmin (Sigma Aldrich) (30 nM), and human neutrophil elastase (30 nM). Where appropriate, enzymes were incubated with specific inhibitors for 30 min at 37°C prior to addition of FIB One. […] Enzyme free reactions served as a control. Enzymatic reactions were performed in MMP buffer (10 mM CaCl2, 6.1 g Tris-HCl, 8.6 g NaCl per litre, pH 7.5) in a final volume of 20 μL. Reactions were performed in duplicate in 384-well plates (Life Technologies) with optically clear plate seals (Thermo Scientific) and repeated thrice (independently). Fluorescence signal was measured for up to 60 min, ex/em 485/528 nm using microplate reader (BioTek Synergy H1 multimode reader). Data were normalised to buffer alone and are presented as fold-change in signal (relative fluorescent units, RFU) compared to enzyme-free controls. Data were plotted using Prism 7 (GraphPad Software Inc., La Jolla, CA, USA)."}, "MMP-9": {"biological_target": "T2, MMP-9 (Homo sapiens, UniProt P14780)", "T2 construct": "recombinant MMPs (Enzo Life Sciences) (active domains of MMP-1, MMP-2, MMP-3, MMP-7, MMP-8, MMP-9, MMP-10, MMP-11, MMP-12, and MMP-13); purchased Enzo Life Sciences", "T2 sequence (P14780 107-444 limits assumed)": "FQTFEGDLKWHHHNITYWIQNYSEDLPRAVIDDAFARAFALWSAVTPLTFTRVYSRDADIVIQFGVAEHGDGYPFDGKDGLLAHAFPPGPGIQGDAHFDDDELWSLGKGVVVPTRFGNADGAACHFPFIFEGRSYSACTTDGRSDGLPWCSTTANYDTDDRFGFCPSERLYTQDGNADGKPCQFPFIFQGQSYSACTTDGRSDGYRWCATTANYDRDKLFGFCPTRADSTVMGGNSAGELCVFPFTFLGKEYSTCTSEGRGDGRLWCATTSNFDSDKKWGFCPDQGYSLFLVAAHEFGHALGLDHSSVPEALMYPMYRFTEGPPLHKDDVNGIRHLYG", "assay": "In vitro enzymatic validation of FIB One with recombinant MMP-9 (plate reader)", "assay_type": "biochemical", "details": "MMP 30 nM, n=3 in duplicate", "method": "as §1"}, "MMP-13": {"biological_target": "T3, MMP-13 (Homo sapiens, UniProt P45452)", "T3 construct": "recombinant MMPs (Enzo Life Sciences) (active domains of MMP-1, MMP-2, MMP-3, MMP-7, MMP-8, MMP-9, MMP-10, MMP-11, MMP-12, and MMP-13); purchased Enzo Life Sciences", "assay": "In vitro enzymatic validation of FIB One with recombinant MMP-13 (plate reader)", "assay_type": "biochemical", "details": "MMP 30 nM", "method": "as §1, with “Fluorescence signal was measured for up to 60 min, ex/em 485/528 nm using microplate reader (BioTek Synergy H1 multimode reader).” left out"}, "erythrocyte": {"tested_on": "erythrocyte", "assay": "Erythrocyte hemolysis", "assay_type": "cell-based"}, "[1]": {"assay": "Stability study of FIB One aqueous formulation (HPLC)", "assay_type": "physicochemical", "details": "for Conc. / pH: aqueous formulation; for Conc. / ∆% / Total imp. RRT(%): HPLC; for ∆%: change of conc."}, "[2]": {"details": "FIB One 1 μM, MMP buffer pH 7.5, ex/em 485/528 nm, fold-change vs enzyme-free control, n=3 in duplicate"}, "[3]": {"details": "fridge 2-8 °C, 1m, 1st of 2 vials"}, "[4]": {"details": "fridge 2-8 °C, 1m, 2nd of 2 vials"}, "[5]": {"details": "fridge 2-8 °C, 3m, 1st of 2 vials"}, "[6]": {"details": "fridge 2-8 °C, 3m, 2nd of 2 vials"}, "[7]": {"details": "fridge 2-8 °C, 6m, 1st of 2 vials"}, "[8]": {"details": "fridge 2-8 °C, 6m, 2nd of 2 vials"}, "[9]": {"details": "fridge 2-8 °C, 9m, 1st of 2 vials"}, "[10]": {"details": "fridge 2-8 °C, 9m, 2nd of 2 vials"}, "[11]": {"details": "fridge 2-8 °C, 10m, 1st of 2 vials"}, "[12]": {"details": "fridge 2-8 °C, 10m, 2nd of 2 vials"}, "[13]": {"details": "fridge 2-8 °C, 12m, 1st of 2 vials"}, "[14]": {"details": "fridge 2-8 °C, 12m, 2nd of 2 vials"}, "[15]": {"details": "fridge 2-8 °C, 21m, 1st of 2 vials"}, "[16]": {"details": "fridge 2-8 °C, 21m, 2nd of 2 vials"}, "[17]": {"details": "fridge 2-8 °C, 24m, 1st of 2 vials"}, "[18]": {"details": "fridge 2-8 °C, 24m, 2nd of 2 vials"}, "[19]": {"details": "fridge 2-8 °C, 24h, 1st of 2 vials"}, "[20]": {"details": "fridge 2-8 °C, 24h, 2nd of 2 vials"}, "[21]": {"details": "fridge 2-8 °C, 14d, 1st of 2 vials"}, "[22]": {"details": "fridge 2-8 °C, 14d, 2nd of 2 vials"}, "[23]": {"details": "AZD1236 0.11-14 µM, FIB One 1 µM"}}, "data": [{"substance": "(Pro-Phe-Gly-Nle-Lys-βAla)3 [FIB One]", "values": [{"measurement": "fluorescent amplification of FIB One on exposure to enzyme", "setting": "MMP-2; [2]", "result": "rapid and specific fluorescent amplification"}, {"measurement": "fluorescent amplification of FIB One on exposure to enzyme", "setting": "MMP-9; FIB One 1 μM, MMP buffer pH 7.5, ex/em 485/528 nm, fold-change vs enzyme-free control", "result": "rapid and specific fluorescent amplification"}, {"measurement": "signal amplification compared with analogous monomeric linear structure (FRET-monomer)", "setting": "MMP-9; probes 1 µM, 10 min incubation", "result": "improved signal amplification"}, {"measurement": "fluorescent amplification of FIB One on exposure to enzyme", "setting": "MMP-13; [2]", "result": "rapid and specific fluorescent amplification"}, {"measurement": "signal amplification compared with analogous monomeric linear structure (FRET-monomer)", "setting": "MMP-13; probes 1 µM, 10 min incubation, n=3 in duplicate", "result": "improved signal amplification"}, {"measurement": "erythrocyte hemolysis", "setting": "erythrocyte", "result": "absence of erythrocyte hemolysis"}, {"measurement": "degradation in aqueous formulation of the drug product (HPLC traces)", "setting": "[1]; after 24 months, stored at 2-8°C", "result": "no degradation"}, {"measurement": "Conc.", "setting": "[1]; [3]", "result": 80.16, "unit": "µg per 5mL"}, {"measurement": "Conc.", "setting": "[1]; [4]", "result": 77.20, "unit": "µg per 5mL"}, {"measurement": "Conc.", "setting": "[1]; [5]", "result": 78.87, "unit": "µg per 5mL"}, {"measurement": "Conc.", "setting": "[1]; [6]", "result": 72.63, "unit": "µg per 5mL"}, {"measurement": "Conc.", "setting": "[1]; [7]", "result": 64.94, "unit": "µg per 5mL"}, {"measurement": "Conc.", "setting": "[1]; [8]", "result": 72.74, "unit": "µg per 5mL"}, {"measurement": "Conc.", "setting": "[1]; [9]", "result": 70.54, "unit": "µg per 5mL"}, {"measurement": "Conc.", "setting": "[1]; [10]", "result": 66.27, "unit": "µg per 5mL"}, {"measurement": "Conc.", "setting": "[1]; [11]", "result": 62.55, "unit": "µg per 5mL"}, {"measurement": "Conc.", "setting": "[1]; [12]", "result": 67.69, "unit": "µg per 5mL"}, {"measurement": "pH", "setting": "[1]; [13]", "result": 7.5}, {"measurement": "pH", "setting": "[1]; [14]", "result": 7.5}, {"measurement": "Conc.", "setting": "[1]; [13]", "result": 60.40, "unit": "µg per 5mL"}, {"measurement": "Conc.", "setting": "[1]; [14]", "result": 57.67, "unit": "µg per 5mL"}, {"measurement": "pH", "setting": "[1]; [15]", "result": 7.5}, {"measurement": "pH", "setting": "[1]; [16]", "result": 7.5}, {"measurement": "Conc.", "setting": "[1]; [15]", "result": 65.38, "unit": "µg per 5mL"}, {"measurement": "Conc.", "setting": "[1]; [16]", "result": 59.62, "unit": "µg per 5mL"}, {"measurement": "pH", "setting": "[1]; [17]", "result": 7.5}, {"measurement": "pH", "setting": "[1]; [18]", "result": 7.5}, {"measurement": "Conc.", "setting": "[1]; [17]", "result": 58.4, "unit": "µg per 5mL"}, {"measurement": "Conc.", "setting": "[1]; [18]", "result": 58.4, "unit": "µg per 5mL"}, {"measurement": "Conc.", "setting": "[1]; [19]", "result": 81.63, "unit": "µg per 5mL"}, {"measurement": "Conc.", "setting": "[1]; [20]", "result": 82.28, "unit": "µg per 5mL"}, {"measurement": "Conc.", "setting": "[1]; [21]", "result": 76.85, "unit": "µg per 5mL"}, {"measurement": "Conc.", "setting": "[1]; [22]", "result": 84.60, "unit": "µg per 5mL"}, {"measurement": "pH", "setting": "[1]; timepoint 0", "result": 7.5}, {"measurement": "∆%", "setting": "[1]; [3]", "result": -10.9, "unit": "%"}, {"measurement": "∆%", "setting": "[1]; [4]", "result": -14.2, "unit": "%"}, {"measurement": "∆%", "setting": "[1]; [5]", "result": -12.4, "unit": "%"}, {"measurement": "∆%", "setting": "[1]; [6]", "result": -19.3, "unit": "%"}, {"measurement": "∆%", "setting": "[1]; [7]", "result": -27.8, "unit": "%"}, {"measurement": "∆%", "setting": "[1]; [8]", "result": -19.2, "unit": "%"}, {"measurement": "∆%", "setting": "[1]; [9]", "result": -21.6, "unit": "%"}, {"measurement": "∆%", "setting": "[1]; [10]", "result": -26.4, "unit": "%"}, {"measurement": "∆%", "setting": "[1]; [11]", "result": -30.5, "unit": "%"}, {"measurement": "∆%", "setting": "[1]; [12]", "result": -24.8, "unit": "%"}, {"measurement": "∆%", "setting": "[1]; [13]", "result": -32.9, "unit": "%"}, {"measurement": "∆%", "setting": "[1]; [14]", "result": -35.9, "unit": "%"}, {"measurement": "∆%", "setting": "[1]; [15]", "result": -27.3, "unit": "%"}, {"measurement": "∆%", "setting": "[1]; [16]", "result": -33.8, "unit": "%"}, {"measurement": "∆%", "setting": "[1]; [17]", "result": -35.1, "unit": "%"}, {"measurement": "∆%", "setting": "[1]; [18]", "result": -35.1, "unit": "%"}, {"measurement": "∆%", "setting": "[1]; [19]", "result": -9.3, "unit": "%"}, {"measurement": "∆%", "setting": "[1]; [20]", "result": -8.6, "unit": "%"}, {"measurement": "∆%", "setting": "[1]; [21]", "result": -14.6, "unit": "%"}, {"measurement": "∆%", "setting": "[1]; [22]", "result": -6.1, "unit": "%"}, {"measurement": "Total imp. RRT(%)", "setting": "[1]; [3]", "result": "ND/NQ ND/NQ"}, {"measurement": "Total imp. RRT(%)", "setting": "[1]; [4]", "result": "ND/NQ ND/NQ"}, {"measurement": "Total imp. RRT(%)", "setting": "[1]; [5]", "result": "ND/NQ ND/NQ"}, {"measurement": "Total imp. RRT(%)", "setting": "[1]; [6]", "result": "ND/NQ ND/NQ"}, {"measurement": "Total imp. RRT(%)", "setting": "[1]; [7]", "result": "ND/NQ ND/NQ"}, {"measurement": "Total imp. RRT(%)", "setting": "[1]; [8]", "result": "ND/NQ ND/NQ"}, {"measurement": "Total imp. RRT(%)", "setting": "[1]; [9]", "result": "ND/NQ ND/NQ"}, {"measurement": "Total imp. RRT(%)", "setting": "[1]; [10]", "result": "ND/NQ ND/NQ"}, {"measurement": "Total imp. RRT(%)", "setting": "[1]; [11]", "result": "ND/NQ ND/NQ"}, {"measurement": "Total imp. RRT(%)", "setting": "[1]; [12]", "result": "ND/NQ ND/NQ"}, {"measurement": "Total imp. RRT(%)", "setting": "[1]; [13]", "result": "ND/NQ ND/NQ"}, {"measurement": "Total imp. RRT(%)", "setting": "[1]; [14]", "result": "ND/NQ ND/NQ"}, {"measurement": "Total imp. RRT(%)", "setting": "[1]; [15]", "result": "ND/NQ ND/NQ"}, {"measurement": "Total imp. RRT(%)", "setting": "[1]; [16]", "result": "ND/NQ ND/NQ"}, {"measurement": "Total imp. RRT(%)", "setting": "[1]; [17]", "result": "ND/NQ ND/NQ"}, {"measurement": "Total imp. RRT(%)", "setting": "[1]; [18]", "result": "ND/NQ ND/NQ"}, {"measurement": "Total imp. RRT(%)", "setting": "[1]; [19]", "result": "ND/NQ ND/NQ"}, {"measurement": "Total imp. RRT(%)", "setting": "[1]; [20]", "result": "ND/NQ ND/NQ"}, {"measurement": "Total imp. RRT(%)", "setting": "[1]; [21]", "result": "ND/NQ ND/NQ"}, {"measurement": "Total imp. RRT(%)", "setting": "[1]; [22]", "result": "ND/NQ ND/NQ"}]}, {"substance": "AZD1236", "values": [{"measurement": "inhibition of MMP", "setting": "MMP-2; [23]", "result": "ability to inhibit"}, {"measurement": "inhibition of MMP", "setting": "MMP-13; [23]", "result": "ability to inhibit"}]}]}
